Target: Hemagglutinin of influenza A/Japan/305/57 (H2N2), on inactivated whole virions (Influenza A virus A/Japan/305/1957 …, UniProt P03451 16-562)
Test: ELISA, B cell culture supernatant on inactivated whole virions

Row | Binder | OD450 [OD450]
1 | TCN-532 (5262_H18) (antibody, V domains shown) VH: QVQLQESGPGLVKPSETLSLTCTVSGGSVSSETYYWSWIRQPPGKGLEWIGYIYYIGNTDYRPSLKSRVTISLDTSKNQFSLKLSSVTAADTAVYYCARGAYYDSSGYPAFYIWGQGTMVTVSS VL: QSVLTQPPSVSGAPGQRVTISCTGSSSNIGSDYDVHWYKQLPGTAPKLLIFGNSNRPSGVPDRFSGSKSGTSASLAITGLQAEDEADYYCQSYDSSLSGFHVFGSGTKVTVL | 0.07
2 | TCN-542 (5079_A16) (antibody, V domains shown) VH: QVQLQESGPGLVKPSQTLSLTCTVSGGSISSGNYYWNWVRQHPGKGLEWIGYIYYRGSTFYNPSLKSRVTISIDTSKNQFSLRLSSVTAADTAVYYCAKDTRSSLDNYQYGMDVWGQGTTVTVSS VL: QTVVTQEPSLTVSPGGTVTLTCASSTGAVTSSYFPNWFQQKPGQAPRPLIYSTTIRHSWTPARFSGSLLGGKAALTLSGVQPEDEADYYCLLYSGGDPVAFGGGTKLTVL | 0.08
3 | TCN-527 (5086_C06) (antibody, V domains shown) VH: QVQLQESGPGLVKPSETLSLNCAVSGGSISNYYWSWIRQPPGKGLEWIGYISYNGRPKYNPSLTSRVTISVDTSKDQFSLELRSVTAADTALYYCARETRFGELLSPYDAFEIWGQGTMVTVSS VL: DIQMTQSPSSLSASVGDRVTMTCRASQNIRSYLNWYQQRPGTAPKLLIYAASTLHSGVPSRFSGGGSGTDFTLTINNLQPEDFASYYCQQSYDNPQTFGQGTKVEIK | 1.48
4 | TCN-534 (5249_B02) (antibody, V domains shown) VH: QVQLVQSGAEVKKPGSSVKVSCRESGGTFNGYTITWVRQAPGQGLEWMGGIIPMMGTVNYAQKLQGRVTITTDYFTKTAYMDLNNLRSEDTAMYYCVKIRYTGQQLLWGQGTLVTVSS VL: DIQMTQSPSTLSASIGDRVTITCRASQSIASWLAWYQQKPGKAPKLLIYEAVNLESGVPSRFSGSGSGTDFTLTISSLQPDDFATYFCQHYGTISQTFGGGTKVEIK | 2.56
5 | TCN-547 (5092_F11) (antibody, V domains shown) VH: QVQLQESGPGLVKPSQTLSLTCTVSGDSISSVDHYWSWIRQHPVKGLEWIGFMYYSASTYYNPSLKSRVTISTDTSKNQFSLRLSSVTAADTAVYYCARGTCAGDCSLHYYYYGLDVWGQGRTVTVSS VL: DIQMTQSPSSLSASVGDRVTITCRASQSISSYLNWYQHKPGKAPKVLMYAVSILQSGVPSRFSGSGSGADFTLTISSLQPEDFATYYCQQSYSSPLTFGGGTKVEIK | 0.07
6 | TCN-548 (5092_P01) (antibody, V domains shown) VH: QVQLQESGPGLVKPSETLSLTCTVSSGPMSDYYWSWIRQPPGKGLEWIGHVSVSHGGRTKSNPSVMSRVTISVETSKNQFSLKLTSVTAADTAVYYCARLNYYDRSGYHSPDGPSNNWFDPWGQGTLVTVSS VL: not shown | 0.09
7 | TCN-544 (5082_A19) (antibody, V domains shown) VH: QVQLQESGPGLVKPSETLSLTCTVSRGSIGHYFWSWIRQPPGKGLEWIGYISYSGSTKYNPSLRSRVTISVDTSKNQFSLNLNSVTATDTALYYCAREDYDILTGAGPGMEVWGQGTTVTVSS VL: QSMLTQPPSASGTPGQRVTISCSGSSSNIGSNTVNWFKHLPGTAPKLLIYRNDLRPSGVPDRFSGSKSGTSASLAISGLQSEDEADYYCATWDDSLNGFYVFGTGTKVTVL | 0.07
8 | TCN-546 (5089_L08) (antibody, V domains shown) VH: QVQLQQWGAGLLKPSETLSLTCGVYGGSLSDYYWSWIRQPPGKGLEWIGEINHSGGTNYNPSLKRRVTISVDTSKKQFSLKMNSVTAADTAVYYCARGTDPDTEVYCRAGNCAAFDFWGQGTLVTVSS VL: EIVLTQSPGTLSLSPGERATLSCRASHFVIGRAVAWYQQKPGQAPRLLIYGASSRATGIPDRFSGSGSGTDFTLTISRLETEDFAVFYCQHYGSSPRYAFGQGTKLEIK | 0.06
9 | TCN-521 (3280_D18) (antibody, V domains shown) VH: EVQLVQSGGGLVQPGGSLRLACVVSGFTVTSNYITWVRQAPGKGLEWVSVIYSHGRAYYSASVNGRFTISRHTSKNTVYLEMNSLRPEDTAVYYCAGGGLVGGYDEYFFDYWGQGTLATVSS VL: ETVLTQSPGTLSLTPGERATLSCRVGQSVSGSHLAWYQQKPGQAPRLLIYGASSRATGIPDRFGGSVSGTDFTLTISRLEPEDSAVYYCQQYGDSRYTFGQGTKLEIK | 3.1
10 | TCN-523 (5248_A17) (antibody, V domains shown) VH: QVQLVQSGAEVKKPGSSVKVSCKASGGSFSNYAFSWVRQAPGQGLEWMGGTIPLLGTTNYAQKFQGRVTISADQFTSTAYMELGSLRSEDTAVYYCTRRKMTTAFDSWGQGTLVTVSS VL: QPVLTQPPSASASLGASVTLTCTLSSAYSNYKVDWYQQRPGKGPRFVMRVGTGGIVGSKGDGIPDRFSVLGSGLNRYLTIKNIQEEDESDYHCGADHGSGSNFVSPYVFGGGTKLTVL | 1.62
11 | TCN-545 (5082_I15) (antibody, V domains shown) VH: QVQLQQWGAGLLKPSETLSLSCAVFGGSFSDYYWTWIRQPPGKGLEWIGEIKHSGRTNYNPSLESRVTISVDTSKNQFSLKLSSVTAADTAIYYCARGTDPDTEGYCRSGSCSAFDFWGQGTLVTVSS VL: EIVLTQSPGTLSLSPGERATLSCRASHFVNYRSLAWYQQTPGQVPRLLIYGASTRATGIPDRFSGSGSGTDFTLTISRLEPEDFAVYFCQQYGGSPRYTFGQGTRLEIK | 0.06
12 | TCN-563 (5237_B21) (antibody, V domains shown) VH: QVQLAQSGAEVKRPGSSVKVSCTASGGIFRKNAISWVRQAPGQGLEWMGGIIAVFNTANYAQKFQGRVKITADESGNTAYMELSSLRSDDTAVYYCASHPKYFYGSGSYPDFWGQGTLVTVSS VL: QSALTQPRSVSGSPGQSVTISCTGSSSDVGASNSVSWYQQHPGKAPKLVIYDVTERPSGVPHRFSGSKSGNTASLTVSGLQPEDEADYFCCAYGGKYLVVFGGGTKVTVL | 1.23
13 | TCN-526 (5084_C17) (antibody, V domains shown) VH: EVLMVESGGGLVQPGGSVRLSCVASGFSFSSHWMTWVRQAPGKGLEWVANIEDDGGDKYYVDSVKGRFIISRDNAKNSVYLQMNSLRAEDTAVYFCARGSGSSDRSDYDPHYYYYLDVWGKGATVTVSS VL: DIQLTQSPSSLSASVGDRVTITCRASQSISRYLNWYQQKPGKAPKLLLFAASTLLDGVPSRFSGSGSGTDFTLTISSLQPEDFATYYCQRNHSPSWTFGQGTRVEIK | 0.07
14 | TCN-539 (5056_A08) (antibody, V domains shown) VH: QVQLVESGGGVVQPGRSLRLSCAASEITFITYAMHWVRQAPGKGLEWVALISDDGSNKFYADSVKGRFTISRDNSKNTLYLQMNSLRAEDTAAYYCAREGVYFDSGTYRGYFDYWGQETLVTVSS VL: EIVLTQSPATLSLSPGERATLSCRASQSVSSYLAWYQQKPGQAPRLLIYDASNRATGIPARFSGSGSGTDFTLTISSLEPEDFAVYYCQQRSHWPPITFGQGTRLEIK | 0.06
15 | TCN-531 (5091_H13) (antibody, V domains shown) VH: EVQLVESGGDLVQPGRSLKLSCTGSGFTFGDYGVTWVRQAPGKGLEWVGFIRTRPWGGTADTAASVKGRFTISRDDSKSLAYLQMNSLKTEDTAVYYCCRDAPPNVEVASMTNWYFDLWGRGTLVTVSS VL: DIQLTQSPSSLSASVGDRVTITCRASQGILNCLAWYQQKPGKVPNLLMYAASTLQSGVPSRFSGSGFGTDFTLTISSLQPEDVATYYCQTYGGVSTFGGGTKVEIR | 0.67
16 | TCN-536 (5095_N01) (antibody, V domains shown) VH: QVQLQQWGAGLLKPSETLSLTCAVYGGSFSVSGYYWSWIRQPPGRGLEWIGEISHGGSTNYNPSLKSRVTISVDTTKNQFSLRLSSVTAADTAVYYCARGTDPDTEVYCRVGNCAAFDYWGQGSLVTVSS VL: EIILAQSPGTLSLSPGERATLSCRASQFVSTRSLAWYQQRPGQAPRLLIYGASSRATGIPDRFSGSGSGTDFTLTISRLEPEDFAVYYCQHYGYSPRYAFGQGSKVEIK | 0.08
17 | TCN-535 (5246_P19) (antibody, V domains shown) VH: QVQLVQSGSEVKKPGTSVKVSCTASGSVFTNYGISWVRQAPGQGLEWMGGIIPLFGAAKYAQKFQGRVTITADESTKTVYMELSRLTSKDTAIYFCAKAPRVYEYYFDQWGQGTPVTVSS VL: EIVLTQSPGTLSLSPGERATLSCRASQSVSSSQLAWYQQKPGQAPRLIIYGASTRATGIPDRFSGSGSGTDFTLTIGRLEPEDFAVFFCQQYSTSPPTFGQGTKVDFK | 1.46
18 | TCN-540 (5060_F05) (antibody, V domains shown) VH: QVQLVQSGGGVVQPGRSLRLSCAASGFTFSSYAMHWVRQAPGKGLEWVAIISYDGNDQYYTDSVKGRFTISRDSSKVYLQMHRLRPEDTAVYYCAKEFETSGYFHGSFDYWGQGILVTVSS VL: QSALTQPASVSGSPGQSITISCTGTSSDVGGYNYVSWYQQHPGKAPKLLIYEVTNWPSGVSNRFSGSKSGNTASLTISGLQAEDEADYYCSSYAGSSTWVFGGGTRVTVL | 3.62
19 | TCN-528 (5087_P17) (antibody, V domains shown) VH: QVQLVQSGSEVKKPGASVKVSCKASGYTFTNYDINWIRQAPGQGLEWMGWINPNSGTTGSAQRFQGRVTITVDTSITTVYMELSSLRSDDTAIYYCARGRELLRLQHFLTDSQSERRDCFDPWGQGTLVTVSS VL: DIQMTQSPSSLSASVGDRVTITCRANQDIGIYLNWYQQNPGKVPKLLLHGASSLQGGVPSRFSASGSGTDFTLTIHSLQPEDLATYYCQQSRRLPYTFGQGTRVELK | 2.82
20 | TCN-530 (5248_H10a) (antibody, V domains shown) VH: QVQLVQSGAEVRKPGSSVKVSCKASGGPFMSYAIGWVRQAPGQGLEWMGGINPVFGRPHYAQKFQGRVTIATDDSTKTSYMELSSLTSEDTGMYYCASRYSRSSPGTFESWGQGTLVTVSS VL: EIVMTQFPATLSVSPGERVTLSCRASQSVSNNLAWYQQKPGQPPRLLIYDASTRATGVPAKFSGTGSGTEFTLSISSLQSEDFAVYYCQQYHNWPPSYSFGLGTKLEIK | 1.73
21 | TCN-543 (5081_G23) (antibody, V domains shown) VH: QVHLVQSGAEVRKPGDSVKVSCKTSGYTFSTYPVAWVRQVPGQGLEWMGWISTYNGNTNFAQNFQGRVTLTTDTTTNTAYMEVRSLKFDDTAVYYCARVEGSYRDFWNNQNRFDPWGQGTLVTVSS VL: SYVLTQPPSVSVAPGQTARISCGGSNIGGKSVHWYQQKPGQAPVLVVYDDSGRPSGIPERFSGSNSGDTATLTISRVEAGDEADYFCQVWDNFGGVFGTGTKVTVL | 3.62
22 | TCN-533 (5256_A17) (antibody, V domains shown) VH: QVQLVQSGADVKKPGSSVTVSCKASGGSFSNYGINWVRQAPGQGLEWMGGIIPLINAPNYAPKFQGRVTITADMFSNIVSLQLTSLRTDDTAVYYCARRKMTTAIDYWGQGTLVTVSS VL: QPVLSQPPSASASLGASVTLTCTLSSGFDNYQVAWYQQRPGKGPRFVMRVGNGGNVASKGDGIPDRFSVSGSGLNRYLTIKNIQEDDESDYYCGADHGSGNNFVSPYVFGGGTKLTVL | 1.1

Reference: patent US20120207760A1 (THERACLONE SCIENCES, published 2012)
